The source of these data is the DeepSol protein solubility set.

The nature of this data set: soluble on expression in E. coli; label from the status in PepcDB or PDB records.
For “AAASMDAVTAEKFSPASFLDKKETGVLHFVKYHGLGNDFILVDNRDSSEPKITQEQAAKLCDRNFGVGADGVIFAMPGVNGTDYAMRIFNSDGSEPEMCGNGVRCFARFIAELENLQGKHSFTIHTGAGLIVPEIQDDGQVKVDMGTPILKAQDVPTKLSGNKGEAVVEAELVVDGVSWNVTCVSMGNPHCITFGKKGGPNLKVDDLNLPEIGPKFEHHEMFPARTNTEFVEVLSRSHLKMRVWERGAGATLACGTGACALVVAAVLEGRADRKCTVDLPGGPLEIEWKQEDNHIYMTGPAEAVFYGSALLHHHHHH”, the “soluble on expression in E. coli” value is “soluble”.

With “AAPTATVTPSSGLSDGTVVKVAGAGLQAGTAYWVAQSAWVDTGVYASNPADISSVTADANGSASTSLTVRRSFEGFLWDGTRWGTVDCTTAACHVTLRDALSNGPEGVAISF”, the “soluble on expression in E. coli” value was “soluble”. For “ADAYFYNPITSQRSNFPLSYPMTAKSFMEKHGLLDREEYLKRLAENENNVELVNYPLEKLEFNRRVNKLNVLMISVNNLRADALNQEEMPNLYEFAQQNQNFRKHYSSSNDTYGAFGLFYGLPTSYASSIKAQGASPVLLDVLKDQGYTFGLFSGSGFEDDLYSEIVFRGVNLAEKLDGTQAHTDKQSIADWNMWLTEKANQPWFSYIEVTTVDNFESIPSNSKEDMSASERFKNAYEFAVKSADDKVGGIIKTLEDAQLLANTVVIVTSNHGSEFNETNTNSWGANSNYSRYQLQVPMVIHWPGMMAGEFNHSTSHLDLSVTLLQDMLGVSSNPYDYSSGRNLFDESRRRWILAGDTRELALITNNQTTVIDKFGNYKLYDENYKRMRDETPKLPVLMQGLTELQRFYSKSE” the value was “not soluble”; for “ADLGHQTLGSNDGWGAYSTGTTGGSKASSSNVYTVSNRNQLVSALGKETNTTPKIIYIKGTIDMNVDDNLKPLGLNDYKDPEYDLDKYLKAYDPSTWGKKEPSGTQEEARARSQKNQKARVMVDIPANTTIVGSGTNAKVVGGNFQIKSDNVIIRNIEFQDAYDYFPQWDPTAGSSGNWASQYDNITINGGTHIWIDHCTFNDGSRPDSTSPKYYGRKYQHHDGQTDASNGANYITMSYNYYHDHDASSIFGSSDSKTSDDGKLKITLHHNRYKNIVQRAPRVRFGQVHVYNNYYEGSTSSSSYPFSYAWGIGKSSKIYAQNNVIDVPGLSAAKTISVFSGGTALYDSGTLLNGTQINASAANGLSSSVGWTPSLHGSIDASANVKSNVINQAGAGKLN”, “soluble”; for “ADTRIGVTIYKYDDNFMSVVRKAIEKDGKSAPDVQLLMNDSQNDQSKQNDQIDVLLAKGVKALAINLVDPAAAGTVIEKARGQNVPVVFFNKEPSRKALDSYDKAYYVGTDSKESGVIQGDLIAKHWQANQGWDLNKDGKIQYVLLKGEPGHPDAEARTTYVVKELNDKGIQTEQLALDTAMWDTAQAKDKMDAWLSGPNANKIEVVIANNDAMAMGAVEALKAHNKSSIPVFGVDALPEALALVKSGAMAGTVLNDANNQAKATFDLAKNLAEGKGAADGTSWKIENKIVRVPYVGVDKDNLSEFTQK”, “soluble”. For “AEASADLRADAMAKDRSEEERTTEAEKNERVQKHLKALTSELANARDESKKTANDMIHAENMRLGRDKYKTLRQIRQGNTKQRIDEFESM” the value was “soluble”; for “AEEFPVPNGFESAYREVDGVKLHYVKGGQGPLVMLVHGFGQTWYEWHQLMPELAKRFTVIAPDLPGLGQSEPPKTGYSGEQVAVYLHKLARQFSPDRPFDLVAHDIGIWNTYPMVVKNQADIARLVYMEAPIPDARIYRFPAFTAQGESLVWHFSFFAADDRLAETLIAGKERFFLEHFIKSHASNTEVFSERLLDLYARSYAKPHSLNASFEYYRALNESVRQNAELAKTRLQMPTMTLAGGGHGGMGTFQLEQMKAYAEDVEGHVLPGCGHWLPEECAAPMNRLVIDFLSRGRHHHHHH”, “soluble”; for “AEMEVQIVRNDPPLRYDTNLPVDLLHMVYAGRGATGSSGVVFGTWYRTIQDRTITDFPLTTRSADFRDGRMSKTFMTALVLSLQACGRLYVGQRHYSAFECAVLCLYLLYRNTHGAADDSDRAPVTFGDLLGRLPRYLACLAAVIGTEGGRPQYRYRDDKLPKTQFAAGGGRYEHGALASHIVIATLMHHGVLPAAPGDVPRDASTHVNPDGVAHHDDINRAAAAFLSRGHNLFLWEDQTLLRATANTITALGVIQRLLANGNVYADRLNNRLQLGMLIPGAVPSEAIARGASGSDSGAIKSGDNNLEALCANYVLPLYRADPAVELTQLFPGLAALCLDAQAGRPVGSTRRVVDMSSGARQAALVRLTALELINRTRTNPTPVGEVIHAHDALAIQYEQGLGLLAQQARIGLGSNTKRFSAFNVSSDYDMLYFLCLGFIPQYLSAV”, “soluble”. For “AHHHHHHASAKWVCKICGYIYDEDAGDPDNGISPGTKFEELPDDWVCPICGAPKSEFEKLEDGSEKVDRIIQMEIGRINSHLPKARKSLCELLKEDSPSIELRDGSLHYFRRSELEFLKTLAGEEACLVKLPIILELSTLDRGYFVVRGRGEVRVIKKLLELSEDIYLEENTVRLPRYYLPTIRRKLPTTTVYAFITEW” the value was “soluble”. For “AHHHHHHGSAELKVSAIKEGTVIDHIPAGKGLKVIQILGLGELKNGGAVLLAMNVPSKKLGRKDIVKVEGKFLSEEEVNKIALVAPTATVNIIREYKVVEKFKVEIPDVIEGILKCGNPNCITHYEYVTPKFYVISKEPLKVRCHYCERTMEEEEILANL”, the “soluble on expression in E. coli” value is “soluble”. For “AHHHHHHGSARITEEQRRKLAQDALEYHRNNFPGNGKIEVIPKVPLRDFYDLSLAYTPGVAEPCKVIAKKGNYEDYTIIPNTVAVVTDGSAILGLGNIGVLAGMPVMEGKCVLFKALAGIDAFPILIDTQDVEKIVETIKLISKGFGGINLEDISAPRCFEIEMRLKRELDIPVFHDDQHGTAVVTLAGLINALKLVGKKFNEIKVAISGAGAAGIAIAKLLHHVGVKEILLVDRAGIIYEGRKENMNPYKEEVARFNIHGVQGDLAKAMEGADVFIGVSVGGIVKPWMIKKMADDPIVFAMANPIPEIMPEDAKKAGAKIVATGRSDYPNQINNVLGFPGIFRGALDVRATDITLNMNIAAAEAIASVVSDEELSEDYIIPSPLHPDVYPKEARAVAEQAIRDGVARRKLSGEWVEEHTRKLREFYAALIEPLNERRKQYIT” the value was “soluble”. For “AHHHHHHGSEDIVEALKLAVTNLPEDVALALKNAYEREDYEIAKYNLEIMLRAVKTSKKEKVPLCQDTGTPIFFVETDGTWNVKEIYETIAEAVKRATDEIPLRPNAICLLSGKVVGNVPEIHIEPGKRNRISILIKGGGSENCSALFPLTPGDWFEGVKKKIIDHIRSCGGKPCPPIIVGIGIASPAERAITLAKKSLFRKIGERHEKLGWLEEEILEEINFLDIGPMGLGGKTTALDVKIEVGERHPASFIVGIAIQCWAHRRAFIEEKEDGEVVIWQ” the value was “soluble”; for “AHHHHHHGSEKALILAEGRYKTTDGKTAHGLVRYSKRFEIVGVIDSTLAGRDAGEILDGIYRGIPIYGSLEEALAEHPDVKYLIIGVATPGGYLPPLYREIIKKAIKKRINIVNGLHNFLSDDPEFSRLAKRYKVQLIDVRKMYRDLKIPFTGKIKEVRAIKIAVLGTDAAIGKRTTAIMLHEAFERFGKKSVFVAMGQTGWMQGAKYCIVMDSIINDFVVGAIEDVIWRAWKEENPDVIVTHGEGSLLHPAYPGGFELIAAGRPDYIILQHAPARKFFDDFPQYEIPPLEKYIQLIELLSGKKPIAITINSEGLTKEEALQKAREIEETYGILTRVPLYEGVDDIVKAILEEVERIKVTVPQEGAVNASQVL”, “not soluble”. For “AHHHHHHGSFKILRKERLAPGINLFEIESPRIAKHAKPGQFVMIRLHEKGERIPLTIADVDISKGSITIVAQEVGKTTRELGTYEAGDYILDVLGPLGKPSHIDYFGTVVMIGGGVGVAEIYPVAKAMKEKGNYVISILGFRTKDLVFWEDKLRSVSDEVIVTTNDGSYGMKGFTTHALQKLIEEGRKIDLVHAVGPAIMMKAVAELTKPYGIKTVASLNPIMVDGTGMCGACRVTVGGEVKFACVDGPEFDAHLVDWDQLMNRLAYYRDLEKISLEKWERERRMV” the value was “soluble”; for “AHHHHHHGSILLLTGMPGSGKGVVAREFEKRGIPVVSMGDAIREEAEKRGIPKTPEGLKEVSLKVREELGPGAVAILTVPKVRKLLELNPVVVVEGVRSPYEVEEFRKEFKNEEIKVVAIHSSPKSRFQRLLKRQRSDDPKTWEEFVERDRKELNFGIGEVIALADYIIVNECGFDQLKANIEKLISMIFDGKI”, “soluble”.
